Our source for the binding result and EC50 values is patent US9988424 (DUKE UNIVERSITY, dated 2018).

Residue numbers refer to the chain shown, from its start.

One assay concerns the target B.9021 gp140C (HIV-1). Put plainly: ELISA. Background: In an ELISA, binding on a coated surface is turned into a signal by an enzyme label.
The next assay addresses T1, AE.92TH023 gp120 gD+ (HIV-1).
T1 construct: domain: gp120; also called AE.92TH023 gp12 gD+
Put plainly: ELISA.

The target in assay [1] is T2, AE.97CNG2XF gp140CF (HIV-1).
T2 construct: also called E.97CNGX2F gp140CF
Description: ELISA.

Assay [2] has as its target T3, SIV CPZ US-1 gp140CF (SIVcpz).
T3 construct: also called US-1 SIVCPZ gp140CF
T3 chain: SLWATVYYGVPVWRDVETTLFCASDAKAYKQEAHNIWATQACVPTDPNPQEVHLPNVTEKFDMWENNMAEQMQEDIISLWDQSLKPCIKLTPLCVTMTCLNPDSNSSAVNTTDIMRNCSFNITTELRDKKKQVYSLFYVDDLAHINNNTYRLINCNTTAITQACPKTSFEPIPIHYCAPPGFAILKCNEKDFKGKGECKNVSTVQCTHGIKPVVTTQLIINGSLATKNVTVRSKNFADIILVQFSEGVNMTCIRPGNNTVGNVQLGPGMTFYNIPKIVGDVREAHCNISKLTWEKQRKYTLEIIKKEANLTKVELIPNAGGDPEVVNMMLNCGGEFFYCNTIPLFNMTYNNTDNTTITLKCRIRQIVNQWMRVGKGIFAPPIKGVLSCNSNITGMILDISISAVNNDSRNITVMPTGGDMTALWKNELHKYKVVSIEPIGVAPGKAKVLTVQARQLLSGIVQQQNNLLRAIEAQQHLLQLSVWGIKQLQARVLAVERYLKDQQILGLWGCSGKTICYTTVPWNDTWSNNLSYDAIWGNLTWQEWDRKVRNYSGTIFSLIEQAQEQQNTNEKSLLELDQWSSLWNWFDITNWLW
Description: ELISA.

In a further assay the target is C.1086 gp120 (HIV-1). Description: ELISA.
The target of another assay is T4, AE.A244 gD+ gp120 (HIV-1).
T4 construct: domain: gp120; also called AE.A244 gp120gD+
Put plainly: ELISA.

Assay [3] concerns the target T5, B.HXB/BAL gp140CFI (HIV-1, UniProt P04578 33-680).
T5 construct: also called B.HxB/Ba gp140 CFI
Description: ELISA.

The target of assay [4] is AE.A244 V1V2 Tags (HIV-1). Put plainly: ELISA OD405nm, antibody at 33, 11.1 and 1.2 ug/ml.
The target of assay [5] is AE.A244 V1V2 Tags (HIV-1). Description: ELISA.
The target in the next assay is T6, AE.A244 gp120 delta 11 (HIV-1).
T6 construct: also called E.A244gp120Δ11; AE.A244 Δ11 gp120
Put plainly: ELISA.

Another assay has as its target C.CAP206 gp140CF.12 (HIV-1). Put plainly: ELISA, OD405 at 10 ug/ml.
For another assay, the target named is B.040 gp140C. Put plainly: ELISA, OD405 at 10 ug/ml.
Another assay concerns the target Con 6 gp120. Description: ELISA, OD405 at 10 ug/ml.
The target in the next assay is AE.con gp140CF. Put plainly: ELISA, OD405 at 10 ug/ml.
A further assay addresses G.con gp140CF. Put plainly: ELISA, OD405 at 10 ug/ml.
The next assay has as its target T7, A.9004SS V1/V2 tags.
T7 V1V2 tags construct: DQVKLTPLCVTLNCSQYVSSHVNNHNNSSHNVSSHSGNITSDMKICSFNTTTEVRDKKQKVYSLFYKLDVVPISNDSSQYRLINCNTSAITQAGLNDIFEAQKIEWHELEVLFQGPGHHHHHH
Description: ELISA, OD405 at 10 ug/ml.

The next assay has as its target T8, C.1086 gp140.
T8 construct: also called C.1086gp140C
Put plainly: ELISA, OD405 at 10 ug/ml.

For the next assay, the target named is T9, gp70 C.1086 V1/V2 (HIV-1 V1V2 on murine leukemia virus gp70).
T9 construct: also called C.gp70 1086C V1V2; C.1086gp70V1V2
T9 chain: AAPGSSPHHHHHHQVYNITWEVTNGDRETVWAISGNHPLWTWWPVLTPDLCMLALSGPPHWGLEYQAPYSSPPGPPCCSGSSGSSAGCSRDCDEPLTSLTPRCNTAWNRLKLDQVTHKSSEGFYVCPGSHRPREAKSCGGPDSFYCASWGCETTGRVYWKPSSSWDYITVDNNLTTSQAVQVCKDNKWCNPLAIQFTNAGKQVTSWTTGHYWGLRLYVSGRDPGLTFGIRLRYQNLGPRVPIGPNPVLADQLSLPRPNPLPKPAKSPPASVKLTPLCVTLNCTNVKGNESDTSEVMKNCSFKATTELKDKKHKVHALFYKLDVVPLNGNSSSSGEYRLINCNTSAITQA
Put plainly: ELISA, OD405 at 10 ug/ml.

The target in assay [6] is T2, AE.97CNG2XF gp140CF. Description: ELISA, OD405 at 10 ug/ml.
Assay [7] addresses T3, SIV CPZ US-1 gp140CF. Description: ELISA, OD405 at 10 ug/ml.
For a further assay, the target named is T10, gp70 B.CaseA2 V1/V2 (HIV-1 V1V2 on murine leukemia virus gp70).
T10 construct: also called B.gp70CaseA2 V1/V2; gp70 B.CaseAV1V2
T10 chain: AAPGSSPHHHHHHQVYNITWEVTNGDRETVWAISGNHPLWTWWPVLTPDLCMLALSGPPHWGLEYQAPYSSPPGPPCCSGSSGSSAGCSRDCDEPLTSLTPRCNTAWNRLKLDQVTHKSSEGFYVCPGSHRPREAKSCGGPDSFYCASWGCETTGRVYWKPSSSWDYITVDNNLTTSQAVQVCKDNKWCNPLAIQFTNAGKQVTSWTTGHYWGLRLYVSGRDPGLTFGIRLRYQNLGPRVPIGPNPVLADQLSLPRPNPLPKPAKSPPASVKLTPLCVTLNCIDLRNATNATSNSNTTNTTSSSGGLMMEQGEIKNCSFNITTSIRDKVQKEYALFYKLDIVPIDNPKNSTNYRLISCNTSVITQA
Description: ELISA, OD405 at 10 ug/ml.

Assay [8] addresses T5, B.HXB/BAL gp140CFI. Description: ELISA, OD405 at 10 ug/ml.
Another assay has as its target B.con gp140CF. Put plainly: ELISA, OD405 at 10 ug/ml.
Assay [9] addresses AE.A244 V1V2 Tags (HIV-1). Description: ELISA OD405nm, bar chart, antibody concentration not given.

B1: HG107 (antibody, V domains shown)
VH: EVQLVESGGDLVQPGRSLRLSCAASGFTFDDYAMHWVRQAPGKGLEWISGISGNSGSRGYADSVKGRFTISRDNAKNSLYLQMNSLRAEDTALYYCATDGDRSGTTPLDHWGQGTRVTVSS
VL: SYELTQPPSVSVSPGQTARITCSGDALPKNYAYWYQQKSGQAPALVIYEDSKRPSGIPERFSGSSSGTMATLTISGAQVEDEADYYCYSTDSSGTPSFGTGTKVTVL
notes: also called mAb HG107
The EC50 is the concentration at which the effect is half-maximal. In the case of B1, the binding result with B.9021 gp140C, in the assay with SIV CPZ US-1 gp140CF [2] and with B.HXB/BAL gp140CFI [3] was “no binding” each time. In addition, the EC50 worked out at 0.04 µg/mL with AE.92TH023 gp120 gD+, 0.055 µg/mL with AE.97CNG2XF gp140CF [1], 0.03 µg/mL in the assay with C.1086 gp120 and 0.03 µg/mL with AE.A244 gD+ gp120.

B2: HG120 (antibody, V domains shown)
VH: EVQLVESGGGLVQPGGSLRLSCAASGFTFSSYAMRWVRQAPGKGLEWVSGISGSGGSTYYADSVKGRFTISRDNSKITLYLQMDSLRVEDTAVYYCATAPLSYDSSTDYWGQGTLVTVSS
VL: B1 VL with N30K, A44V, T95N, S97R, T100R, V104L
notes: also called mAb HG120
Turning to B2, the binding result with B.9021 gp140C, in the assay with SIV CPZ US-1 gp140CF [2] and with B.HXB/BAL gp140CFI [3] was “no binding” each time. Further, the EC50 amounted to 0.02 µg/mL in the assay with AE.92TH023 gp120 gD+, 0.06 µg/mL in the assay with AE.97CNG2XF gp140CF [1], 0.02 µg/mL with C.1086 gp120 and 0.02 µg/mL with AE.A244 gD+ gp120.

B3: CH01 RUA 1 (antibody, V domains shown)
VH: EVQLVESGGGVVRPGGSLRLSCAASGFTFDDYGMSWVRQAPGKGLEWVSGINWNGGSTGYADSVKGRFTISRDNAKNSLYLQMNSLRAEDTALYYCARGTDYTIDDQGIRYQGSGTFWYFDLWGRGTLVTVSS
VL: not shown
Regarding B3, the binding result in the assay with AE.A244 V1V2 Tags [4] was “binds”.

B4: CH01 UA3 (antibody, V domains shown)
VH: B3 VH with Y95H, R110H, Q112Y, F117Y
VL: not shown
Turning to B4, the EC50 was determined as 18 nM in the assay with AE.A244 V1V2 Tags [5] and 9.3 nM with AE.A244 gp120 delta 11. The binding result with C.CAP206 gp140CF.12, with B.040 gp140C, with Con 6 gp120, with AE.con gp140CF, with G.con gp140CF and with A.9004SS V1/V2 tags was “no binding (tested: 10 ug/ml)” throughout. For the same molecule, the binding result with C.1086 gp140, in the assay with gp70 C.1086 V1/V2, with AE.97CNG2XF gp140CF [6], with SIV CPZ US-1 gp140CF [7], in the assay with gp70 B.CaseA2 V1/V2 and with B.HXB/BAL gp140CFI [8] was “no binding (tested: 10 ug/ml)” each time. For the same molecule, in the assay with B.con gp140CF, the binding result is “no binding (tested: 10 ug/ml)”.

B5: CH01 RUA 2 (antibody, V domains shown)
VH: B3 VH with R110L
VL: not shown
As for B5, in the assay with AE.A244 V1V2 Tags [9], the binding result is recorded as “binds”.
